Results: the Human Domainome abundance scans (Beltran et al. 2025)
± gives the uncertainty stated by the source.

B1: Homeobox protein cut-like 1, residues 548 to 629; numbered along this chain, P39880 (parent)
chain: GEEMDTAEIARQVKEQLIKHNIGQRIFGHYVLGLSQGSVSEILARPKPWNKLTVRGKEPFHKMKQFLSDEQNILALRSIQGR

Variants of: B1
Experiment: abundance fitness (aPCA) (normalised: wild type 0, dead -1); higher = more abundant; growth selection in yeast, the domain comes from the species named
Conditions: Homo sapiens

Abundance fitness: each site, then its substitutions
Q16: H -0.113 ± 0.3
I26: P -0.517 ± 0.056 | K -0.152 ± 0.036 | C -0.058 ± 0.044 | N -0.261 ± 0.063 | A -0.056 ± 0.027 | Y -0.107 ± 0.065 | W -0.083 ± 0.028 | F -0.078 ± 0.076 | D 0.023 ± 0.045 | M -0.082 ± 0.033 | G -0.547 ± 0.026 | L -0.002 ± 0.03 | H -0.056 ± 0.056 | V 0.034 ± 0.026 | S -0.14 ± 0.033 | T 0.009 ± 0.037 | R -0.401 ± 0.027
R11: C -0.327 ± 0.1 | D -0.274 ± 0.085 | Y -0.249 ± 0.08 | F -0.243 ± 0.085 | G -0.18 ± 0.047 | P -0.646 ± 0.13 | T -0.131 ± 0.061 | M -0.112 ± 0.057 | V -0.311 ± 0.058 | W -0.506 ± 0.081 | H -0.102 ± 0.071 | K 0.069 ± 0.063 | A -0.157 ± 0.058 | Q -0.24 ± 0.076 | N -0.205 ± 0.083
I9: K -0.508 ± 0.046 | A -0.695 ± 0.046 | D -0.428 ± 0.063 | S -0.672 ± 0.051 | P -0.605 ± 0.056 | V -0.103 ± 0.028 | W -0.82 ± 0.054 | Y -0.495 ± 0.1 | M -0.292 ± 0.041 | L -0.13 ± 0.031 | G -0.623 ± 0.03 | H -0.56 ± 0.1 | F -0.547 ± 0.11 | E -0.517 ± 0.038 | N -0.643 ± 0.088 | R -0.69 ± 0.035 | T -0.267 ± 0.039 | C -0.459 ± 0.055 | Q -0.583 ± 0.054
T6: Y -0.901 ± 0.13 | E -0.921 ± 0.058 | P -0.385 ± 0.039 | M -1.01 ± 0.097 | S -0.468 ± 0.039 | I -1.14 ± 0.19 | W -0.884 ± 0.062 | C -0.66 ± 0.064 | D -0.859 ± 0.096 | R -0.896 ± 0.041 | G -0.946 ± 0.043 | V -0.839 ± 0.049 | K -0.81 ± 0.074 | L -1.02 ± 0.073 | F -0.822 ± 0.27
R25: S 0.078 ± 0.03 | N 0.017 ± 0.064 | I -0.122 ± 0.052 | V -0.088 ± 0.027 | M -0.079 ± 0.037 | T 0.036 ± 0.034 | K 0.022 ± 0.042 | A 0.102 ± 0.027 | L -0.192 ± 0.032 | W -0.072 ± 0.03 | G 0.082 ± 0.021 | Y -0.003 ± 0.06 | H 0.059 ± 0.057 | D 0.138 ± 0.042 | P -0.068 ± 0.039 | E 0.158 ± 0.029 | Q 0.019 ± 0.037 | F -0.096 ± 0.064
A7: D -0.136 ± 0.049 | R -0.093 ± 0.024 | L -0.082 ± 0.031 | E -0.029 ± 0.031 | H 0.01 ± 0.051 | W -0.143 ± 0.029 | Q -0.028 ± 0.035 | V -0.121 ± 0.029 | M -0.107 ± 0.039 | F -0.053 ± 0.059 | C -0.081 ± 0.044 | K -0.003 ± 0.035 | S -0.09 ± 0.032 | G -0.17 ± 0.024 | Y -0.093 ± 0.052 | P -0.532 ± 0.046
E15: Y -0.091 ± 0.14 | A -0.023 ± 0.13 | I -0.003 ± 0.24 | D -0.211 ± 0.19 | K -0.573 ± 0.33 | F -0.363 ± 0.23 | S 0.034 ± 0.093 | Q -0.077 ± 0.1 | N -0.328 ± 0.23 | C 0.094 ± 0.25 | L -0.03 ± 0.075 | G -0.332 ± 0.16 | R -0.207 ± 0.12 | T -0.143 ± 0.12 | V -0.19 ± 0.077
A10: Q -0.798 ± 0.066 | V 0.032 ± 0.029 | N -0.692 ± 0.099 | K -0.746 ± 0.067 | W -0.755 ± 0.063 | Y -0.863 ± 0.18 | L -0.874 ± 0.056 | H -1.24 ± 0.26 | T -0.08 ± 0.037 | D -0.835 ± 0.099 | R -0.792 ± 0.038 | I -0.249 ± 0.068 | G -0.552 ± 0.029 | S -0.151 ± 0.034 | P -0.744 ± 0.071 | M -0.947 ± 0.094 | E -0.822 ± 0.054
V13: D -0.486 ± 0.066 | I -0.102 ± 0.042 | S -0.56 ± 0.044 | G -0.53 ± 0.044 | C -0.238 ± 0.045 | A -0.415 ± 0.041 | W -0.721 ± 0.07 | T -0.198 ± 0.039 | F -0.911 ± 0.097 | E -0.608 ± 0.06 | H -0.574 ± 0.069 | P -0.564 ± 0.053 | Y -0.812 ± 0.086 | K -0.548 ± 0.067 | M -0.263 ± 0.054 | N -0.511 ± 0.054 | Q -0.574 ± 0.06 | L -0.423 ± 0.036 | R -0.586 ± 0.041
E8: D -0.032 ± 0.038 | V -0.135 ± 0.028 | G -0.233 ± 0.023 | F -0.22 ± 0.055 | I -0.22 ± 0.06 | T -0.118 ± 0.038 | L -0.091 ± 0.029 | Q -0.104 ± 0.036 | W -0.231 ± 0.029 | R -0.17 ± 0.024 | S -0.119 ± 0.032 | N -0.211 ± 0.056 | C -0.219 ± 0.042 | M -0.149 ± 0.038 | K -0.113 ± 0.038 | P -0.979 ± 0.1 | A -0.118 ± 0.029 | H -0.135 ± 0.05
K19: P -0.763 ± 0.087 | L -0.201 ± 0.034 | E -0.26 ± 0.03 | M -0.293 ± 0.041 | N -0.216 ± 0.07 | I -0.244 ± 0.095 | D -0.344 ± 0.062 | R -0.117 ± 0.024 | W -0.618 ± 0.038 | H 0.029 ± 0.11 | Y -0.242 ± 0.12 | Q -0.18 ± 0.04 | A -0.171 ± 0.026 | F -0.187 ± 0.087 | V -0.271 ± 0.028 | G -0.513 ± 0.024 | C -0.363 ± 0.053
L17: S -0.635 ± 0.045 | F -0.808 ± 0.18 | P -0.538 ± 0.051 | C -0.493 ± 0.079 | H -0.939 ± 0.27 | V -0.665 ± 0.038 | E -0.613 ± 0.039 | D -0.774 ± 0.093 | W -0.808 ± 0.05 | R -0.609 ± 0.031 | I -0.358 ± 0.094 | A -0.724 ± 0.044 | N -0.696 ± 0.12 | Q -0.612 ± 0.058 | M -0.405 ± 0.046 | T -0.518 ± 0.057 | Y -0.842 ± 0.21
F27: P -0.861 ± 0.081 | S -0.906 ± 0.079 | L -0.47 ± 0.039 | I -0.8 ± 0.17 | C -1.03 ± 0.23 | A -1.01 ± 0.057 | V -0.815 ± 0.049 | E -0.906 ± 0.055 | G -0.894 ± 0.041 | Q -0.747 ± 0.073 | W -0.572 ± 0.044 | D -0.862 ± 0.1 | H -1.14 ± 0.29 | N -0.787 ± 0.13 | Y -1.15 ± 0.23 | T -0.914 ± 0.071 | K -0.99 ± 0.092 | M -0.857 ± 0.08 | R -0.884 ± 0.043
I18: H -0.052 ± 0.072 | V 0 ± 0.029 | K 0.075 ± 0.038 | F 0.085 ± 0.065 | E 0.064 ± 0.031 | M -0.005 ± 0.034 | Y 0.008 ± 0.064 | N 0.012 ± 0.055 | G -0.105 ± 0.023 | A 0.007 ± 0.026 | L -0.031 ± 0.032 | S 0.014 ± 0.032 | W -0.13 ± 0.03 | Q 0.084 ± 0.032 | C 0.014 ± 0.045
G23: T -0.013 ± 0.033 | L -0.081 ± 0.031 | Y -0.108 ± 0.06 | P 0.08 ± 0.035 | H -0.009 ± 0.067 | D 0.114 ± 0.043 | M -0.12 ± 0.038 | S 0.023 ± 0.032 | A -0.004 ± 0.024 | C -0.054 ± 0.051 | K 0.012 ± 0.035 | F -0.293 ± 0.076 | N 0.105 ± 0.056 | I -0.309 ± 0.085 | W -0.268 ± 0.031 | Q 0.043 ± 0.032 | R -0.068 ± 0.023 | V -0.196 ± 0.027
G28: A 0.018 ± 0.027 | C -0.223 ± 0.051
Q24: T -0.069 ± 0.034 | C -0.108 ± 0.055 | A -0.129 ± 0.028 | H 0.021 ± 0.059 | N -0.069 ± 0.088 | S -0.118 ± 0.034 | Y -0.013 ± 0.072 | F -0.094 ± 0.084 | G -0.386 ± 0.026 | V 0.043 ± 0.029 | W 0.025 ± 0.03 | E 0.053 ± 0.029 | M -0.032 ± 0.037 | R -0.159 ± 0.024 | P -0.079 ± 0.035 | D -0.091 ± 0.079 | I -0.032 ± 0.079
N21: K -0.055 ± 0.033 | S -0.084 ± 0.032 | G 0.025 ± 0.023 | D -0.03 ± 0.05 | I -1.06 ± 0.19 | A -0.151 ± 0.027 | Q -0.021 ± 0.033 | T -0.305 ± 0.035 | M -0.378 ± 0.045 | V -0.518 ± 0.033 | W -0.759 ± 0.053 | P -0.72 ± 0.063 | C -0.181 ± 0.048 | H 0.009 ± 0.063 | Y -0.469 ± 0.12 | E -0.04 ± 0.028 | R -0.115 ± 0.023 | F -0.534 ± 0.12
I22: M -0.612 ± 0.058 | F -0.49 ± 0.15 | S -0.801 ± 0.059 | D -0.941 ± 0.12 | G -0.86 ± 0.042 | C -0.491 ± 0.062 | K -0.931 ± 0.084 | P -0.718 ± 0.056 | N -0.701 ± 0.12 | L -0.239 ± 0.032 | Y -0.916 ± 0.16 | V -0.071 ± 0.03 | T -0.687 ± 0.052 | Q -0.797 ± 0.067
H20: T -0.608 ± 0.05 | D -0.722 ± 0.073 | F -0.029 ± 0.091 | N -0.178 ± 0.056 | R -0.464 ± 0.028 | W -0.074 ± 0.029 | E -0.503 ± 0.036 | P -0.677 ± 0.062 | C -0.466 ± 0.065 | S -0.398 ± 0.037 | A -0.348 ± 0.031 | K -0.391 ± 0.041 | G -0.584 ± 0.026 | V -0.6 ± 0.038 | L -0.361 ± 0.036 | I -0.601 ± 0.14
K14: E -0.282 ± 0.16 | C -0.263 ± 0.14 | L -0.401 ± 0.17 | T -0.396 ± 0.23 | R -0.111 ± 0.099 | I -0.24 ± 0.22 | N -0.058 ± 0.23 | D -0.343 ± 0.21 | H 0.1 ± 0.17 | A -0.324 ± 0.16 | S 0.565 ± 0.4
